This is an account of results in paper PMC4617613 (Nature, 2015).

B1: PhnG (natural protein)
chain: MHADTATRQHWMSVLAHSQPAELAARLNALNITADYEVIRAAETGLVQIQARMGGTGERFFAGDATLTRAAVRLTDGTLGYSWVQGRDKQHAERCALIDALMQQSRHFQNLSETLIAPLDADRMARIAARQAEVNASRVDFFTMVRGDNA
B2: PhnJ (natural protein)
chain: MANLSGYNFAYLDEQTKRMIRRAILKAVAIPGYQVPFGGREMPMPYGWGTGGIQLTASVIGESDVLKVIDQGADDTTNAVSIRNFFKRVTGVNTTERTDDATVIQTRHRIPETPLTEDQIIIFQVPIPEPLRFIEPRETETRTMHALEEYGVMQVKLYEDIARFGHIATTYAYPVKVNGRYVMDPSPIPKFDNPKMDMMPALQLFGAGREKRIYAVPPFTRVESLDFDDHPFTVQQWDEPCAICGSTHSYLDEVVLDDAGNRMFVCSDTDYCRQQSEAKNQ
B3: PhnI (natural protein)
chain: MYVAVKGGEKAIDAAHALQESRRRGDTDLPELSVAQIEQQLNLAVDRVMTEGGIADRELAALALKQASGDNVEAIFLLRAYRTTLAKLAVSEPLDTTGMRLERRISAVYKDIPGGQLLGPTYDYTHRLLDFTLLANGEAPTLTTADSEQQPSPHVFSLLARQGLAKFEEDSGAQPDDITRTPPVYPCSRSSRLQQLMRGDEGYLLALAYSTQRGYGRNHPFAGEIRSGYIDVSIVPEELGFAVNVGELLMTECEMVNGFIDPPGEPPHFTRGYGLVFGMSERKAMAMALVDRALQAPEYGEHATGPAQDEEFVLAHADNVEAAGFVSHLKLPHYVDFQAELELLKRLQQEQNHG

In the data set “PhnI” the target is B3. The data set is described as follows: crystal structure.
The data set “crystal structure” deals with the molecule itself. The data set is described as follows: crystal structure.

As to B1, in the data set with PhnI, the binding result was “binds”.
For B2, in the data set with PhnI, the binding result was “binds”.
Turning to B3, the “stoichiometry N” value in “crystal structure” worked out at 2.

The stoichiometry N is a count of units in the complex or per binding partner.
